Patent US20250197514A1 (INTERVET, published 2025)

T1: canine FcRn heterodimer (FCGRT large subunit p51 + beta-2-microglobulin), biotin-labeled (Canis lupus familiaris; Canis familiaris, biotin-labeled (site not stated; the chain carries an AviTag))
T1 construct: also called FcRn/B2M; FcRn/β2M; not shown: AviTag, named only
T1 chain (part 1 of 2): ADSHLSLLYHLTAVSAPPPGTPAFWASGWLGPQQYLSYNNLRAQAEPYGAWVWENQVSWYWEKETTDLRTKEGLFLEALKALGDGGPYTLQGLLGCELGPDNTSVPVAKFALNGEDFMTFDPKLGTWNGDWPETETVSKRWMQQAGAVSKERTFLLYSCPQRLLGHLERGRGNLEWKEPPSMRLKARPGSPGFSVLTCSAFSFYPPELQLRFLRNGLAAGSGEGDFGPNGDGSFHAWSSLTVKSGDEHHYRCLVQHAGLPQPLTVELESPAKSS
T1 chain (part 2 of 2): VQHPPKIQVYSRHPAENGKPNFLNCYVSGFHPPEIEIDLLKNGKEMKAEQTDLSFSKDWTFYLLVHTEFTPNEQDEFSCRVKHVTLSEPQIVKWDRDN


Key:
[1] = biological target: T1, canine FcRn heterodimer (FCGRT large …); test: BLI (Octet HTX), biotinylated FcRn/B2M on streptavidin biosensors, analyte 500-7.8 nM, pH 7.4, 1:1 fit
Description: (§1) The binding of antibodies and IgG Fc fusion proteins to FcRn proteins was determined by Octet™ HTX using Streptavidin (SA) biosensors. First, biotin-labeled […] was loaded onto pre-hydrated SA biosensors for 60 s at a concentration of 10 μg/mL. Second, the biosensors were placed into pH 6.0 TBS/Casein buffer for the blocking phase for 180 s. Third, for the association phase, FcRn/B2M loaded biosensors were placed into 2-fold serial dilutions from 500 nM down to 7.8 nM of antibody or IgG Fc fusion protein in pH 6.0 or 7.4 TBS/Casein buffer for 15 s. Finally, the biosensors were placed into either pH 6.0 or pH 7.4 TBS/Casein buffer for the dissociation phase for 60 s. Analysis was performed using Octet Data Analysis 12.0 software and curves were fitted using a 1:1 binding model.

[2] = biological target: T1, canine FcRn heterodimer (FCGRT large …); test: BLI (Octet HTX), biotinylated FcRn/B2M on streptavidin biosensors, analyte 500-7.8 nM, pH 6.0, 1:1 fit
Description: as §1

Row | Kd [1] [nM] | Kd [2] [nM] | Binder
1 | 253 | 2.58 | cIL-13Rα2-cIgGB-Fc-KYT (Fc fusion, also called cIL-13Ra2-cIgGB-Fc-KYT; H433K/N434Y/Y436T) SMLSNAEIKVNPPQDFEIVDPGYLGYLSLQWQPPLFPDNFKECTIEYELKYRNIDSENWKTIITKNLHYKDGFDLNKGIEAKINTLLPAQCTNGSEVRSSWAETTYWTSPQGNRETKIQDMDCVYYNWQYLVCSWKPGMGVHFDTNYQLFYWYEGLDHSAECTDYIKVNGKNMGCRFPYLESSDYKDFYICVNGSSESQPIRPSYFIFQLQNIVKPMPPDYLSLTVKNSEEINLKWNMPKGPIPAKCFIYEIEFTEDGTTWVTTTVENEIQITRTSNESQKLCFLVRSKVNIYCSDDGIWSEWSDEQCWKGDIWKETPKRENGRVPRPPDCPKCPAPEMLGGPSVFIFPPKPKDTLLIARTPEVTCVVVDLDPEDPEVQISWFVDGKQMQTAKTQPREEQFNGTYRVVSVLPIGHQDWLKGKQFTCKVNNKALPSPIERTISKARGQAHQPSVYVLPPSREELSKNTVSLTCLIKDFFPPDIDVEWQSNGQQEPESKYRTTPPQLDEDGSYFLYSKLSVDKSRWQRGDTFICAVMHEALKYHTTQESLSHSPGK
2 | 414 | 0.97 | cIL-13Rα2-cIgGB-Fc-KF (Fc fusion, also called cIL-13Ra2-cIgGB-Fc-KF; H433K/N434F) SMLSNAEIKVNPPQDFEIVDPGYLGYLSLQWQPPLFPDNFKECTIEYELKYRNIDSENWKTIITKNLHYKDGFDLNKGIEAKINTLLPAQCTNGSEVRSSWAETTYWTSPQGNRETKIQDMDCVYYNWQYLVCSWKPGMGVHFDTNYQLFYWYEGLDHSAECTDYIKVNGKNMGCRFPYLESSDYKDFYICVNGSSESQPIRPSYFIFQLQNIVKPMPPDYLSLTVKNSEEINLKWNMPKGPIPAKCFIYEIEFTEDGTTWVTTTVENEIQITRTSNESQKLCFLVRSKVNIYCSDDGIWSEWSDEQCWKGDIWKETPKRENGRVPRPPDCPKCPAPEMLGGPSVFIFPPKPKDTLLIARTPEVTCVVVDLDPEDPEVQISWFVDGKQMQTAKTQPREEQFNGTYRVVSVLPIGHQDWLKGKQFTCKVNNKALPSPIERTISKARGQAHQPSVYVLPPSREELSKNTVSLTCLIKDFFPPDIDVEWQSNGQQEPESKYRTTPPQLDEDGSYFLYSKLSVDKSRWQRGDTFICAVMHEALKFHYTQESLSHSPGK
3 | 7210 | 12.3 | cIL-13Rα2-cIgGB-Fc-L (Fc fusion, also called cIL-13Ra2-cIgGB-Fc-L; H433L) SMLSNAEIKVNPPQDFEIVDPGYLGYLSLQWQPPLFPDNFKECTIEYELKYRNIDSENWKTIITKNLHYKDGFDLNKGIEAKINTLLPAQCTNGSEVRSSWAETTYWTSPQGNRETKIQDMDCVYYNWQYLVCSWKPGMGVHFDTNYQLFYWYEGLDHSAECTDYIKVNGKNMGCRFPYLESSDYKDFYICVNGSSESQPIRPSYFIFQLQNIVKPMPPDYLSLTVKNSEEINLKWNMPKGPIPAKCFIYEIEFTEDGTTWVTTTVENEIQITRTSNESQKLCFLVRSKVNIYCSDDGIWSEWSDEQCWKGDIWKETPKRENGRVPRPPDCPKCPAPEMLGGPSVFIFPPKPKDTLLIARTPEVTCVVVDLDPEDPEVQISWFVDGKQMQTAKTQPREEQFNGTYRVVSVLPIGHQDWLKGKQFTCKVNNKALPSPIERTISKARGQAHQPSVYVLPPSREELSKNTVSLTCLIKDFFPPDIDVEWQSNGQQEPESKYRTTPPQLDEDGSYFLYSKLSVDKSRWQRGDTFICAVMHEALLNHYTQESLSHSPGK
4 | 229 | 0.93 | cIL-13Rα2-cIgGB-Fc-F (Fc fusion, also called cIL-13Ra2-cIgGB-Fc-F; N434F) SMLSNAEIKVNPPQDFEIVDPGYLGYLSLQWQPPLFPDNFKECTIEYELKYRNIDSENWKTIITKNLHYKDGFDLNKGIEAKINTLLPAQCTNGSEVRSSWAETTYWTSPQGNRETKIQDMDCVYYNWQYLVCSWKPGMGVHFDTNYQLFYWYEGLDHSAECTDYIKVNGKNMGCRFPYLESSDYKDFYICVNGSSESQPIRPSYFIFQLQNIVKPMPPDYLSLTVKNSEEINLKWNMPKGPIPAKCFIYEIEFTEDGTTWVTTTVENEIQITRTSNESQKLCFLVRSKVNIYCSDDGIWSEWSDEQCWKGDIWKETPKRENGRVPRPPDCPKCPAPEMLGGPSVFIFPPKPKDTLLIARTPEVTCVVVDLDPEDPEVQISWFVDGKQMQTAKTQPREEQFNGTYRVVSVLPIGHQDWLKGKQFTCKVNNKALPSPIERTISKARGQAHQPSVYVLPPSREELSKNTVSLTCLIKDFFPPDIDVEWQSNGQQEPESKYRTTPPQLDEDGSYFLYSKLSVDKSRWQRGDTFICAVMHEALHFHYTQESLSHSPGK
5 | 626 | 7.55 | cIL-13Rα2-cIgGB-Fc-K (Fc fusion, also called cIL-13Ra2-cIgGB-Fc-K; H433K) SMLSNAEIKVNPPQDFEIVDPGYLGYLSLQWQPPLFPDNFKECTIEYELKYRNIDSENWKTIITKNLHYKDGFDLNKGIEAKINTLLPAQCTNGSEVRSSWAETTYWTSPQGNRETKIQDMDCVYYNWQYLVCSWKPGMGVHFDTNYQLFYWYEGLDHSAECTDYIKVNGKNMGCRFPYLESSDYKDFYICVNGSSESQPIRPSYFIFQLQNIVKPMPPDYLSLTVKNSEEINLKWNMPKGPIPAKCFIYEIEFTEDGTTWVTTTVENEIQITRTSNESQKLCFLVRSKVNIYCSDDGIWSEWSDEQCWKGDIWKETPKRENGRVPRPPDCPKCPAPEMLGGPSVFIFPPKPKDTLLIARTPEVTCVVVDLDPEDPEVQISWFVDGKQMQTAKTQPREEQFNGTYRVVSVLPIGHQDWLKGKQFTCKVNNKALPSPIERTISKARGQAHQPSVYVLPPSREELSKNTVSLTCLIKDFFPPDIDVEWQSNGQQEPESKYRTTPPQLDEDGSYFLYSKLSVDKSRWQRGDTFICAVMHEALKNHYTQESLSHSPGK

The next lines start with the binder.

Row | Binder | Kd [1] [nM] | Kd [2] [nM]
6 | cIL-13Ra2-Fc (unsubstituted canine IL-13Rα2 ECD - cIgG-B hinge - cIgG-B Fc fusion protein) (Fc fusion, also called cIL-13Rα2-cIgGB-Fc; substitution: None) SMLSNAEIKVNPPQDFEIVDPGYLGYLSLQWQPPLFPDNFKECTIEYELKYRNIDSENWKTIITKNLHYKDGFDLNKGIEAKINTLLPAQCTNGSEVRSSWAETTYWTSPQGNRETKIQDMDCVYYNWQYLVCSWKPGMGVHFDTNYQLFYWYEGLDHSAECTDYIKVNGKNMGCRFPYLESSDYKDFYICVNGSSESQPIRPSYFIFQLQNIVKPMPPDYLSLTVKNSEEINLKWNMPKGPIPAKCFIYEIEFTEDGTTWVTTTVENEIQITRTSNESQKLCFLVRSKVNIYCSDDGIWSEWSDEQCWKGDIWKETPKRENGRVPRPPDCPKCPAPEMLGGPSVFIFPPKPKDTLLIARTPEVTCVVVDLDPEDPEVQISWFVDGKQMQTAKTQPREEQFNGTYRVVSVLPIGHQDWLKGKQFTCKVNNKALPSPIERTISKARGQAHQPSVYVLPPSREELSKNTVSLTCLIKDFFPPDIDVEWQSNGQQEPESKYRTTPPQLDEDGSYFLYSKLSVDKSRWQRGDTFICAVMHEALHNHYTQESLSHSPGK | 7020 | 16.9
7 | cIL-13Rα2-cIgGB-Fc-DY (Fc fusion, also called cIL-13Ra2-cIgGB-Fc-DY; T256D/N434Y) SMLSNAEIKVNPPQDFEIVDPGYLGYLSLQWQPPLFPDNFKECTIEYELKYRNIDSENWKTIITKNLHYKDGFDLNKGIEAKINTLLPAQCTNGSEVRSSWAETTYWTSPQGNRETKIQDMDCVYYNWQYLVCSWKPGMGVHFDTNYQLFYWYEGLDHSAECTDYIKVNGKNMGCRFPYLESSDYKDFYICVNGSSESQPIRPSYFIFQLQNIVKPMPPDYLSLTVKNSEEINLKWNMPKGPIPAKCFIYEIEFTEDGTTWVTTTVENEIQITRTSNESQKLCFLVRSKVNIYCSDDGIWSEWSDEQCWKGDIWKETPKRENGRVPRPPDCPKCPAPEMLGGPSVFIFPPKPKDTLLIARDPEVTCVVVDLDPEDPEVQISWFVDGKQMQTAKTQPREEQFNGTYRVVSVLPIGHQDWLKGKQFTCKVNNKALPSPIERTISKARGQAHQPSVYVLPPSREELSKNTVSLTCLIKDFFPPDIDVEWQSNGQQEPESKYRTTPPQLDEDGSYFLYSKLSVDKSRWQRGDTFICAVMHEALHYHYTQESLSHSPGK | 91.8 | 0.87
8 | cIL-13Rα2-cIgGB-Fc-DPY (Fc fusion, also called cIL-13Ra2-cIgGB-Fc-DPY; T256D/I308P/N434Y) SMLSNAEIKVNPPQDFEIVDPGYLGYLSLQWQPPLFPDNFKECTIEYELKYRNIDSENWKTIITKNLHYKDGFDLNKGIEAKINTLLPAQCTNGSEVRSSWAETTYWTSPQGNRETKIQDMDCVYYNWQYLVCSWKPGMGVHFDTNYQLFYWYEGLDHSAECTDYIKVNGKNMGCRFPYLESSDYKDFYICVNGSSESQPIRPSYFIFQLQNIVKPMPPDYLSLTVKNSEEINLKWNMPKGPIPAKCFIYEIEFTEDGTTWVTTTVENEIQITRTSNESQKLCFLVRSKVNIYCSDDGIWSEWSDEQCWKGDIWKETPKRENGRVPRPPDCPKCPAPEMLGGPSVFIFPPKPKDTLLIARDPEVTCVVVDLDPEDPEVQISWFVDGKQMQTAKTQPREEQFNGTYRVVSVLPPGHQDWLKGKQFTCKVNNKALPSPIERTISKARGQAHQPSVYVLPPSREELSKNTVSLTCLIKDFFPPDIDVEWQSNGQQEPESKYRTTPPQLDEDGSYFLYSKLSVDKSRWQRGDTFICAVMHEALHYHYTQESLSHSPGK | 19.8 | 0.34
9 | cIL-13Ra2-Fc-YTE (Fc fusion, also called L252Y/A254T/T256E) SMLSNAEIKVNPPQDFEIVDPGYLGYLSLQWQPPLFPDNFKECTIEYELKYRNIDSENWKTIITKNLHYKDGFDLNKGIEAKINTLLPAQCTNGSEVRSSWAETTYWTSPQGNRETKIQDMDCVYYNWQYLVCSWKPGMGVHFDTNYQLFYWYEGLDHSAECTDYIKVNGKNMGCRFPYLESSDYKDFYICVNGSSESQPIRPSYFIFQLQNIVKPMPPDYLSLTVKNSEEINLKWNMPKGPIPAKCFIYEIEFTEDGTTWVTTTVENEIQITRTSNESQKLCFLVRSKVNIYCSDDGIWSEWSDEQCWKGDIWKETPKRENGRVPRPPDCPKCPAPEMLGGPSVFIFPPKPKDTLYITREPEVTCVVVDLDPEDPEVQISWFVDGKQMQTAKTQPREEQFNGTYRVVSVLPIGHQDWLKGKQFTCKVNNKALPSPIERTISKARGQAHQPSVYVLPPSREELSKNTVSLTCLIKDFFPPDIDVEWQSNGQQEPESKYRTTPPQLDEDGSYFLYSKLSVDKSRWQRGDTFICAVMHEALHNHYTQESLSHSPGK | 363 | 6.59
